Experiment [1] has as its target T1, soluble human GPNMB (recombinant extracellular domain) (human, UniProt Q14956 23-498).
T1 construct: also called huGPNMB; recombinant human GPNMB extracellular domain; not shown: C-terminal polyhistidine or Avi-His tag
T1 sequence: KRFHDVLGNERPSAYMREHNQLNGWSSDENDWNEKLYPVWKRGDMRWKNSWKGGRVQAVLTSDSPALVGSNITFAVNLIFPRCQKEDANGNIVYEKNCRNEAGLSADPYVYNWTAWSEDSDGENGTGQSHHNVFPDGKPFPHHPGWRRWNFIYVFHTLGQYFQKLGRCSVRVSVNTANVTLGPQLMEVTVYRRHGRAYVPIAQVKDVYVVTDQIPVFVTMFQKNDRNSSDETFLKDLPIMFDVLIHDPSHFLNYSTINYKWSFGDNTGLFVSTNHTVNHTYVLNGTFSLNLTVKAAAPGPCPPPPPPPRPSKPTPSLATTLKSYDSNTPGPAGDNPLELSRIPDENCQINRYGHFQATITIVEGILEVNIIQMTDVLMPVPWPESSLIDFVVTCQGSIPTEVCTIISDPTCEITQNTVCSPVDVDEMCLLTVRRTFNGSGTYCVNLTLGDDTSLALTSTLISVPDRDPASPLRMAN
As to the kind of experiment: SPR Carterra, Ab amine-coupled. How it is done: (§1) Additionally, one of the anti-GPNMB antibodies of the present disclosure was evaluated using a Carterra LSA instrument (Carterra, Salt Lake City, UT). Briefly, the anti-GPNMB antibody was immobilized in duplicate spots onto an HC30M sensor chip (Carterra) by amine coupling according to the instrument manufacturer's recommended protocol. After priming with running buffer (see above) the immobilized antibody was tested for its ability to bind to recombinant human, cynomolgus, and mouse GPNMB. Analytes were diluted to 600 nM in running buffer, then further diluted 3-fold serially to 200 nM, 67 nM, 22.2 nM, 7.4 nM, and 2.5 nM. Analyte at each concentration was injected for five minutes over the entire chip using the single channel flow cell. Dissociation was measured for 5 min, followed by regeneration of the chip with two 30-second injections of 10 mM glycine, pH 2.0. The data were analyzed using the NextGenKIT high-throughput kinetics analysis software from Carterra.

For experiment [2], the target named is T2, soluble cynomolgus GPNMB (recombinant extracellular domain) (cynomolgus, UniProt Q14956 23-499 (human entry), limits assumed).
T2 chain: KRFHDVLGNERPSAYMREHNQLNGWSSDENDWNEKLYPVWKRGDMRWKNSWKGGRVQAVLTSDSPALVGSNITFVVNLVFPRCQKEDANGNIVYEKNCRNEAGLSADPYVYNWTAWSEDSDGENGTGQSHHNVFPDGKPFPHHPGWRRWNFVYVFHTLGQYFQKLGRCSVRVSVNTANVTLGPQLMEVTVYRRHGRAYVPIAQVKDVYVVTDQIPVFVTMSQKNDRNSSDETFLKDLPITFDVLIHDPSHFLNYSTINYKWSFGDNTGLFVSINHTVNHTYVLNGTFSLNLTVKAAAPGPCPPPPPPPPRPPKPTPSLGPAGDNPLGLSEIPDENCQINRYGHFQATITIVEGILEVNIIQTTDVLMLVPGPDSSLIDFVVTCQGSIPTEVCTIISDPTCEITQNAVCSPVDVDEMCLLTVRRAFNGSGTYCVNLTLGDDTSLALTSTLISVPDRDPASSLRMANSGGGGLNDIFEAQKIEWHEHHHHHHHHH
As to the kind of experiment: SPR Carterra, Ab amine-coupled. Here is the method:
as §1

Experiment [3] deals with T3, soluble mouse GPNMB (recombinant extracellular domain) (mouse, UniProt Q99P91 23-502).
T3 construct: also called moGPNMB; not shown: C-terminal polyhistidine or Avi-His tag
T3 sequence: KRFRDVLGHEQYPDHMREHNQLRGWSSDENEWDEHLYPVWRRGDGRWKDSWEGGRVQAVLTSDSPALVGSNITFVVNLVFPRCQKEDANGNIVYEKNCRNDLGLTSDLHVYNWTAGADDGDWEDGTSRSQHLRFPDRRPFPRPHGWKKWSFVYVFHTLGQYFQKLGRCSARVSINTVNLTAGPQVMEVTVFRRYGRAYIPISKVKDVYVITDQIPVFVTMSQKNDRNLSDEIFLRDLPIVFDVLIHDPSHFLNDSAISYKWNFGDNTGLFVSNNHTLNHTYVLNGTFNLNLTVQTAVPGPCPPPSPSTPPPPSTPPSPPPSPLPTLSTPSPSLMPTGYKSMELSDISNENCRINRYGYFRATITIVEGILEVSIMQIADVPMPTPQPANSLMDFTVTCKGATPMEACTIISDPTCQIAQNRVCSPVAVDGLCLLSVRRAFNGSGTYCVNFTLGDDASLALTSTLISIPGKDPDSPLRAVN
As to the kind of experiment: SPR Carterra, Ab amine-coupled. Here is the method:
as §1

Experiment [4] addresses T4, mouse GPNMB endogenously expressed on B16F10 cells (mouse, UniProt Q99P91 23-574).
T4 construct: whole, on cells; also called moGPNMB
T4 sequence (looked up): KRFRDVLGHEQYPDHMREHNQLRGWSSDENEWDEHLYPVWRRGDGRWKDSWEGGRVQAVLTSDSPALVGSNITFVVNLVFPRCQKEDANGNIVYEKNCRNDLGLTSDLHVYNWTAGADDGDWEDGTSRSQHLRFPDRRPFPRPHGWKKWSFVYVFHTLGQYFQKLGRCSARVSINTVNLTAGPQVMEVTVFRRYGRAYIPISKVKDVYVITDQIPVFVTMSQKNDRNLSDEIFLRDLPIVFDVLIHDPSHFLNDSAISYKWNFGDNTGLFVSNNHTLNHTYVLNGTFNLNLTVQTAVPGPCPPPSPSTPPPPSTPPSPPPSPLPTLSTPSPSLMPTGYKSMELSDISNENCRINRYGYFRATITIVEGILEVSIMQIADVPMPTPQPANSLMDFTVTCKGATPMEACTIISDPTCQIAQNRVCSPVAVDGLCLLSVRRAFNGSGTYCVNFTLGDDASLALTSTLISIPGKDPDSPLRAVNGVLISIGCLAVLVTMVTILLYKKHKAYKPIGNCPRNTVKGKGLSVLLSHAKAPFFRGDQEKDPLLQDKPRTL
Nature of the experiment: FACS, B16F10 cells. Here is the method: Recombinant anti-GPNMB antibodies of the present disclosure were examined for their ability to bind human and/or mouse GPNMB expressed on Freestyle293-huGPNMB+ or B16F10 cells, respectively. B16F10 cells are a murine melanoma cell line from a C57BL/6J mouse that endogenously express high levels of mouse GPNMB. The antibodies were also tested for their ability to bind to a human macrophage cell line (U937 cells) engineered to express human GPNMB. Cells were harvested, plated at 100,000 cells/well in a 96-well round bottom plate, and incubated in 100 μl FACS buffer (PBS containing 2% FBS, 2 mM EDTA) containing anti-GPNMB monoclonal antibodies of the present disclosure for 30 minutes on ice. Cells were then washed and incubated in 100 ul FACS buffer containing 1 μg/ml APC-conjugated anti-human IgG secondary antibody for 30 minutes in ice. Cells were washed twice in cold FACS buffer and acquired on a BD FACS Canto. Data analysis and calculation of MFI values was performed with FlowJo (TreeStar) software version 10.0.7. […]
In general terms: A flow cytometer gives signals particle by particle.

In experiment [5] the target is T4, mouse GPNMB endogenously expressed on …. As to the kind of experiment: FACS titration, B16F10 cells. Here is the method:
Cell-based binding measurements were also performed to measure the apparent affinities of anti-GPNMB antibodies of the present disclosure to cell-surface expressed GPNMB. Serial dilutions of the monoclonal anti-GPNMB antibodies were added to 100,000 Freestyle293-huGPNMB+ or B16F10 cells and allowed to achieve binding equilibrium at 4° C. After addition of fluorescently labeled secondary antibody and brief washing steps, MFI values as a function of titrated antibody concentration was recorded via FACS analysis. Curves were fit using nonlinear regression analysis with Graphpad Prism 6 software.

Experiment [6] deals with T3, soluble mouse GPNMB (recombinant …). Nature of the experiment: SPR Carterra, Ab immobilized. How it is done: Binding kinetics of human anti-GPNMB IgG1 antibodies of the present disclosure to human, cynomolgus, and mouse GPNMB were evaluated using a Carterra LSA instrument (Carterra, Salt Lake City, UT). […] A HC200M sensor chip (Carterra) was activated using the single channel flow cell with a 7-minute injection of a 1:1:1 mixture of 100 mM MES pH 5.5, 100 mM sulfo-NHS, 400 mM EDC (all reconstituted in MES pH 5.5; 100 μl of each mixed in vial immediately before running assay). After switching to the multi-channel array flow cell, the antibodies were injected over the activated chip in a 96-spot array for 15 minutes. The remaining unconjugated active groups on the chip were then blocked by injecting 1M Ethanolamine pH 8.5 (Carterra) for 7 minutes using the single channel flow cell.
After priming with running buffer (HBS-EP+, Teknova) with 0.5 mg/ml BSA (Sigma), the immobilized anti-GPNMB antibodies were tested for their ability to bind to several forms of recombinant GPNMB extracellular domain, including human, cynomolgus, and mouse orthologs as described above. Estimates of affinity were generated by injecting each analyte over the entire antibody array using the single channel flow cell. GPNMB analytes were diluted to 2.5, 7.4, 22, 67, 200, and 600 nM in running buffer, and injected in serial from lowest to highest concentration without regeneration. Two buffer blanks were run between each series (one species per series). Data were processed and analyzed using Kinetics high-throughput kinetics analysis software (Carterra).

The target of experiment [7] is T5, soluble mouse GPNMB-Fc polypeptide (mouse IgG2A Fc) (mouse, UniProt Q99P91 23-502).
T5 construct: extracellular domain; bought (R&D System); also called moGPNMB-Fc; mGPNMB-Fc; not shown: Fc region of mouse IgG2A
T5 sequence (looked up): T3 sequence
Nature of the experiment: FACS, enhancing of moGPNMB-Fc binding to SVEC4-10 cells. Here is the method: Purified full-length anti-GPNMB antibodies of the present disclosure were evaluated for their ability to block binding of moGPNMB-Fc to SVEC4-10 cells to determine the ligand blocking potency of each anti-GPNMB monoclonal antibody. Briefly, 2 μg/mL moGPNMB-Fc (mouse IgG2A Fc) diluted in binding buffer was pre-complexed with increasing concentrations of anti-GPNMB antibody of the present disclosure or human IgG1 isotype control antibody in 96-well plates. Subsequently, 100,000 SVEC4-10 cells were added per well and incubated on ice for 30 minutes. Soluble moGPNMB-Fc bound to cell surface was detected with fluorescent anti-mouse IgG2A secondary antibody and measured on FACSCanto. (FIG. 5A and FIG. 5B) IC50 values (for antibodies that block moGPNMB-Fc cell binding) and EC50 values (for antibodies that enhance moGPNMB-Fc cell binding) based on changes in MFI values were calculated (average+standard error) for each anti-GPNMB antibody and listed in Table 6. In Table 6, NA indicates no activity. […] In all cases, certain anti-GPNMB antibodies of the present disclosure blocked soluble GPNMB binding to cells, while other anti-GPNMB antibodies of the present disclosure enhanced soluble GPNMB binding to cells.

For experiment [8], the target named is T6, soluble mouse GPNMB-Fc polypeptide (Fc of human IgG1 or mouse IgG2A, not specified for the assay) (mouse, UniProt Q99P91 23-502).
T6 construct: extracellular domain; also called moGPNMB-Fc; mGPNMB; not shown: Fc region of human IgG1 or mouse IgG2A; in the Fab2 assay detected with anti-human IgG1 secondary antibody
T6 sequence (looked up): T3 sequence
Nature of the experiment: FACS, Fab2 blocking moGPNMB-Fc binding to SVEC4-10 cells. Here is the method:
(§2) Purified recombinant Fab2 fragments of select anti-GPNMB antibodies of the present disclosure were produced through transient transfection and purified. Briefly, 2 ug/mL soluble mouse or human GPNMB-Fc diluted in binding buffer was pre-complexed with increasing concentrations of anti-GPNMB Fab2 fragments in 96-well plates. Subsequently, 100,000 SVEC4-10 cells were added per well and incubated on ice for 30 minutes. Soluble moGPNMB-Fc or huGPNMB-Fc bound to cell surface was detected with fluorescent anti-human IgG1 secondary antibody and measured on FACSCanto. IC50 and EC50 values based on changes in MFI values were calculated for each antibody.

In experiment [9] the target is T7, soluble human GPNMB-Fc polypeptide (human, UniProt Q14956 23-498, limits assumed).
T7 construct: also called huGPNMB-Fc; not shown: Fc domain
T7 sequence (looked up): T1 sequence
Nature of the experiment: FACS, Fab2 enhancing huGPNMB-Fc binding to SVEC4-10 cells. Here is the method:
as §2

3 molecules from US20250270343A1 (Alector, published 2025) can be followed below.

As a reminder, the Kd is the concentration at which binding is half-saturated. As a reminder, the koff is the first-order rate constant of dissociation. Broadly, the kon is a measure of how fast the partners come together. One may read the EC50 as the concentration needed to bring the measured effect to its halfway point. The IC50 is the concentration needed to halve the response being measured. Read a low IC50 as greater potency.

B1: anti-GPNMB antibody GPN-81 (antibody, V domains shown)
VH: QVQLQESGPGLVKPSETLSLTCTVSGISITTGNYRWSWIRQPPGKGLEWIGYIYYSGTITYNPSLKSRVTITRDTSKNQFSLELSSVTAADTAVYYCARDLTHWYFDVWGQGTLVTVSS
VL: DIVMTQSPDSLAVSLGERATINCKSSESVDYYGIGFLNWYQQKPGQPPKLLIYAASTQGSGVPDRFSGSGSGTDFTLTISSLQAEDVAVYYCQQSKEVPPTFGGGTKVEIK
notes: humanized GPN-52
B1: in experiment [1], the Kd amounted to 135 nM, the koff was determined as 0.0098 s⁻¹ and the kon was 76000 M⁻¹ s⁻¹. In [2], the Kd turned out to be 107 nM, the koff came to 0.01 s⁻¹ and the kon is 97000 M⁻¹ s⁻¹. In experiment [3], the Kd worked out at 12 nM, the koff was determined as 0.0019 s⁻¹ and the kon is 180000 M⁻¹ s⁻¹.

B2: anti-GPNMB antibody GPN-33 (antibody, human IgG1, V domains shown)
VH: EVQLVESGGSLVQPGGSLKLSCVASGYTFSNYWMDWVRQTPGKSLEWIGEINTDGSKTNYAPSIKDRFTISRDNAKSTLYLQMSNVKADDTAIYYCTRGPGAWGQGTSVTVSS
VL: DIVMTQTPLSLSVAIGQSASISCKSSQSLKFSDGKTYLNWVFQSPGQSPKRLIYQVSKLDSGVPDRFSGTGSETDFILKISRVEAEDLGVYYCCQGSYSPWTIGGGTKLELK
notes: chimeric
B2: the “MFI fold over background” value in experiment [4] was determined as 20.9 fold. In addition, the EC50 in [5] was found to be 17.8 nM. Moreover, in experiment [6], the Kd is below 0.3 nM, the koff is below 1e-05 s⁻¹ and the kon was 40000 M⁻¹ s⁻¹. Besides, the EC50 in experiment [7] worked out at 0.79 nM.

B3: recombinant Fab2 fragment of anti-GPNMB antibody GPN-61 (other)
VH: DVQLQESGPGLVKPSQTVFLTCTVTGISITTGNYRWSWIRQFPGNKLEWIGYIYYSGTITYNPSLTSRTTITRDTPKNQFFLEMSSLTAEDTATYFCARDLRHWYFDVWGTGTTVTVSS
VL: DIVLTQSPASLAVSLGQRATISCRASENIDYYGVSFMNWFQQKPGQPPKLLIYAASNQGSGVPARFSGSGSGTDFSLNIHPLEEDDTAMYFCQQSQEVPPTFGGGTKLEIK
notes: also called GPN-61 Fab2
Regarding B3, in experiment [8], the IC50 turned out to be 1.56 nM. Also, in experiment [9], the EC50 was found to be 9.05 nM.
